Measurements: patent US20230212549A1 (3B PHARMACEUTICALS, published 2023)
Several values for one entry are separate records, joined by “and”; a condition that tells them apart may be missing. Identical values can stand only once. Numbered stars: 1 amine (or outer) side, 2 acyl side, 3 side chain; on linkers, the order of the positions; unused ones are H or OH. Bridge positions count the residues as written; N and C are the ends. Square brackets hold non-standard residues; d marks the D form. Primed or numbered codes have the meaning given here. * marks the point of attachment. Ttds″ = 1,13-diamino-4,7,10-trioxatridecan-succinamic acid spacer, O=C(CCC(=O)[*:2])NCCCOCCOCCOCCCN[*:1]; Ttds = 1,13-diamino-4,7,10-trioxatridecan-succinamic acid, O=C(CCC(=O)[*:2])NCCCOCCOCCOCCCN[*:1]; DOTA = O=C(O)CN1CCN(CC(=O)O)CCN(CC(=O)*)CCN(CC(=O)O)CC1; mXylylene = c1cc(C[*:1])cc(C[*:2])c1; PentylNH‑urea = CCCCCNC(=O)*; Hexanoyl = CCCCCC(=O)*

B1: Ac-met-[Cys(tMeBn(DOTA-AET))-Pro-Pro-Thr-Gln-Phe-Cys]-OH (peptide)
peptide: MCPPTQFC
modifications: N-term acetyl; D-Met1; Cys2/Cys8 thioether-bridged by tMeBn carrying DOTA-AET; C-term free acid
notes: also called 3BP-3682
B2: PentylNH-urea-[Cys(3MeBn)-Pro-Pro-Thr-Gln-Phe-Cys]-Asp-NH2 (peptide)
peptide: {PentylNH‑urea}-CPPTQFCD-NH2
modifications: linker 1-7 via mXylylene
SMILES: CCCCCNC(=O)N[C@H]1CSCc2cccc(c2)CSC[C@@H](C(=O)N[C@@H](CC(=O)O)C(N)=O)NC(=O)[C@H](Cc2ccccc2)NC(=O)[C@H](CCC(N)=O)NC(=O)[C@H]([C@@H](C)O)NC(=O)[C@@H]2CCCN2C(=O)[C@@H]2CCCN2C1=O
notes: also called 3BP-3425
B3: Ac-Met-[Cys(3MeBn)-Pro-Pro-thr-Glu-Phe-Cys]-Asp-His-Phe-Arg-Asp-NH2 (peptide)
peptide: Ac-MCPP[dT]EFCDHFRD-NH2
modifications: linker 2-8 via mXylylene
SMILES: CSCC[C@H](NC(C)=O)C(=O)N[C@H]1CSCc2cccc(c2)CSC[C@@H](C(=O)N[C@@H](CC(=O)O)C(=O)N[C@@H](Cc2c[nH]cn2)C(=O)N[C@@H](Cc2ccccc2)C(=O)N[C@@H](CCCNC(=N)N)C(=O)N[C@@H](CC(=O)O)C(N)=O)NC(=O)[C@H](Cc2ccccc2)NC(=O)[C@H](CCC(=O)O)NC(=O)[C@@H]([C@H](C)O)NC(=O)[C@@H]2CCCN2C(=O)[C@@H]2CCCN2C1=O
notes: also called 3BP-3178
B4: Hex-[Cys(tMeBn(DOTA-NH))-Pro-Pro-Thr-Gln-Phe-Cys]-Asp-NH2 (peptide)
peptide: Hexanoyl-CPPTQFCD-NH2
modifications: linker 1-7 via tMeBn(DOTA-NH)
notes: also called 3BP-3556
B5: Ac-Met-[Cys(3MeBn)-Pro-pro-Thr-Glu-Phe-Cys]-Asp-His-Phe-Arg-Asp-NH2 (peptide)
peptide: Ac-MCP[dP]TEFCDHFRD-NH2
modifications: linker 2-8 via mXylylene
SMILES: CSCC[C@H](NC(C)=O)C(=O)N[C@H]1CSCc2cccc(c2)CSC[C@@H](C(=O)N[C@@H](CC(=O)O)C(=O)N[C@@H](Cc2c[nH]cn2)C(=O)N[C@@H](Cc2ccccc2)C(=O)N[C@@H](CCCNC(=N)N)C(=O)N[C@@H](CC(=O)O)C(N)=O)NC(=O)[C@H](Cc2ccccc2)NC(=O)[C@H](CCC(=O)O)NC(=O)[C@H]([C@@H](C)O)NC(=O)[C@H]2CCCN2C(=O)[C@@H]2CCCN2C1=O
notes: also called 3BP-3177
B6: DOTA-Ttds-Glu-[Cys(3MeBn)-Pro-Pro-Thr-Glu-Phe-Cys]-Asp-His-Phe-Arg-Asp-NH2 (peptide)
peptide: {DOTA}-[Ttds″]ECPPTEFCDHFRD-NH2
modifications: linker 3-9 via mXylylene
SMILES: C[C@@H](O)[C@@H]1NC(=O)[C@@H]2CCCN2C(=O)[C@@H]2CCCN2C(=O)[C@@H](NC(=O)[C@H](CCC(=O)O)NC(=O)CCC(=O)NCCCOCCOCCOCCCNC(=O)CN2CCN(CC(=O)O)CCN(CC(=O)O)CCN(CC(=O)O)CC2)CSCc2cccc(c2)CSC[C@@H](C(=O)N[C@@H](CC(=O)O)C(=O)N[C@@H](Cc2c[nH]cn2)C(=O)N[C@@H](Cc2ccccc2)C(=O)N[C@@H](CCCNC(=N)N)C(=O)N[C@@H](CC(=O)O)C(N)=O)NC(=O)[C@H](Cc2ccccc2)NC(=O)[C@H](CCC(=O)O)NC1=O
notes: also called 3BP-3173
B7: DOTA-Ttds-Phe-[Cys(3MeBn)-Pro-Pro-Thr-Glu-Phe-Cys]-Asp-His-Phe-Arg-Asp-NH2 (peptide)
peptide: {DOTA}-[Ttds]FCPPTEFCDHFRD-NH2
modifications: linker 3-9 via mXylylene
SMILES: C[C@@H](O)[C@@H]1NC(=O)[C@@H]2CCCN2C(=O)[C@@H]2CCCN2C(=O)[C@@H](NC(=O)[C@H](Cc2ccccc2)NC(=O)CCC(=O)NCCCOCCOCCOCCCNC(=O)CN2CCN(CC(=O)O)CCN(CC(=O)O)CCN(CC(=O)O)CC2)CSCc2cccc(c2)CSC[C@@H](C(=O)N[C@@H](CC(=O)O)C(=O)N[C@@H](Cc2c[nH]cn2)C(=O)N[C@@H](Cc2ccccc2)C(=O)N[C@@H](CCCNC(=N)N)C(=O)N[C@@H](CC(=O)O)C(N)=O)NC(=O)[C@H](Cc2ccccc2)NC(=O)[C@H](CCC(=O)O)NC1=O
notes: also called 3BP-3171

Legend:
[1] = target: Recombinant human FAP (R&D systems, #3715-SE) (human, UniProt Q12884 26-760); test: cell-based or functional assay
[2] = target: T1, fibroblast activation protein (FAP) on FAP-expressing human WI-38 fibroblasts (human, UniProt Q12884 1-760); test: competitive FACS, WI-38 cells, vs Cy5 tracer m3; B = pIC50 7.1-8.0
T1 construct: also called human FAP

| Binder | pIC50 Category (Activity) [1] | pIC50 Category (FACS) [2] |
| --- | --- | --- |
| B1 | 7.1 pIC50 and 8 pIC50 | 7.1 pIC50 and 8 pIC50 |
| B2 | > 8 pIC50 | 7.1 pIC50 and 8 pIC50 |
| B3 | 7.1 pIC50 and 8 pIC50 | 7.1 pIC50 and 8 pIC50 |
| B4 | 7.1 pIC50 and 8 pIC50 | 7.1 pIC50 and 8 pIC50 |
| B5 | 7.1 pIC50 and 8 pIC50 | 7.1 pIC50 and 8 pIC50 |
| B6 | 7.1 pIC50 and 8 pIC50 | 7.1 pIC50 and 8 pIC50 |
| B7 | 7.1 pIC50 and 8 pIC50 | 7.1 pIC50 and 8 pIC50 |
